This assay addresses His-CRMP-1 (human CRMP-1) (human, UniProt Q14194 1-572). Nature of the assay: pull-down.

Among the data in article PMC5551698 (The Journal of Cell Biology, 2017) are Kd values, retold here.

Sequence of His-CRMP-1 (human CRMP-1) (Q14194 whole entry): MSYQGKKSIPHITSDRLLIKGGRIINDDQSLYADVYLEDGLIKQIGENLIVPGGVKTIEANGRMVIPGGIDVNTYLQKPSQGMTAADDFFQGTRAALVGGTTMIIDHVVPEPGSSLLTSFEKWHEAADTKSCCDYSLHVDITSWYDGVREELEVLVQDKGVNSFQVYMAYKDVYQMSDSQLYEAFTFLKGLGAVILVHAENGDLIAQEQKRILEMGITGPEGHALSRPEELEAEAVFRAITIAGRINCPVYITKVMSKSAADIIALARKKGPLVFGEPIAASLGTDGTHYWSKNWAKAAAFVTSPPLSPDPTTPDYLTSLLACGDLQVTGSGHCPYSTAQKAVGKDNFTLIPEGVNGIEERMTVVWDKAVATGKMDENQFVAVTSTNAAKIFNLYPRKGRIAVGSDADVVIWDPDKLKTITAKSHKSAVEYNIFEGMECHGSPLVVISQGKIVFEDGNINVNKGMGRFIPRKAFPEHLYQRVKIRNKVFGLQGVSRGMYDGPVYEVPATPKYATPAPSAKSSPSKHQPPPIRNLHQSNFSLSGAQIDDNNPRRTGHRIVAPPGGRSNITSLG

B1: MBP-EVL (human EVL, full length) (natural protein, UniProt Q9UI08 1-416, looked up)
chain: MSEQSICQARASVMVYDDTSKKWVPIKPGQQGFSRINIYHNTASNTFRVVGVKLQDQQVVINYSIVKGLKYNQATPTFHQWRDARQVYGLNFASKEEATTFSNAMLFALNIMNSQEGGPSSQRQVQNGPSPDEMDIQRRQVMEQHQQQRQESLERRTSATGPILPPGHPSSAASAPVSCSGPPPPPPPPVPPPPTGATPPPPPPLPAGGAQGSSHDESSMSGLAAAIAGAKLRRVQRPEDASGGSSPSGTSKSDANRASSGGGGGGLMEEMNKLLAKRRKAASQSDKPAEKKEDESQMEDPSTSPSPGTRAASQPPNSSEAGRKPWERSNSVEKPVSSILSRTPSVAKSPEAKSPLQSQPHSRMKPAGSVNDMALDAFDLDRMKQEILEEVVRELHKVKEEIIDAIRQELSGISTT
Turning to B1, binding was characterised by a dissociation constant (Kd) of 2 µM. This lies in the single-digit micromolar range.
